Assay results taken from the supplement of paper PMC9170038.

System: MS2 coat protein
Assay: apparent KD of MS2 coat protein; designed switch direction (-1 OFF switch, 1 ON switch): -1; higher = weaker reporter binding
Method in brief: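 An oligonucleotide input, 200 uM small-molecule ligand, or no input was present during titration of SNAP-549-labelled MS2 coat protein, which was doubled from 0.7 or 1.5 nM to 3 µM. Designed RNA switches had been transcribed on Illumina chips by stalled E. coli RNA polymerase. Apparent KD per design is the median over clusters of curves fitted to normalised cluster fluorescence.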

[1] = Eterna round: R95, input ligand: FMN 200 uM
[2] = Eterna round: R95, input ligand: microRNA oligo, concentration not stated
[3] = Eterna round: R95, input ligand: none
[4] = input ligand: microRNA oligo, concentration not stated

Sequence	apparent KD of MS2 coat protein [1] [nM]	apparent KD of MS2 coat protein [2] [nM]	apparent KD of MS2 coat protein [3] [nM]	apparent KD of MS2 coat protein (input ligand: FMN 200 uM) [nM]	apparent KD of MS2 coat protein [4] [nM]	apparent KD of MS2 coat protein (input ligand: none) [nM]
GGCCCUAAGGUCAGAUUCACAAGCUUUUUGCUCGUUUUAACAUGAGGAUCACCCAUGUCUAGUGGAUUUGAUCCUUU [Sensor v3, turn-off variant 2 (MOD of Indiso v.6)] (puzzle: Sensor v3, turn-off variant 2)	28.6	25.4	34.2			
UAUACUAGAUAGGAUAUACUAUAUAUAUUAUUCGUAGAAGGAUCUACAUGAGGAUCACCCAUGUUAACAGCAGU [JR_E6_Sub006] (puzzle: Exclusion 6)		37.2				
GCAGCAUAUGUAGGAUAUCUGCACGUUUAGUGCAGAGAAGGACAUGAGGAUCACCCAUGUAAUUAAGAUCAAUUAUUAAGCUGC [ENG1/4-A2] (Eterna round: R96, puzzle: Exclusion NG 1)				42.5	17.2	26.2
CGUAAGCUAGGAUAUGCUUUGGGAAAGCAUUCCUUCGAUAAACUUGAGGAUCACCCAAGUAGAAGGAGCUUACA [salish99_ex2_r4_012] (Eterna round: R97, puzzle: Exclusion 2)				18.2		12.3
GCCUCACUUGAGGAUCACCCAAGUCAGGAUAUCUACAGGCCGGCCAUACCGACCUGCAAGAGAAGGGACUCUAA [Aristi] (Eterna round: R97, puzzle: Exclusion 1)				211		31.4
CCUCUACAUGAGGAUCACCCAUGUGAGGAUAUAAGAUUGCGAAUUCCGCACUACGGUCUUAGAAGGCGCGUGGA [Riarve] (puzzle: Exclusion 1)		15.7				
AAUAACAUGUUGAUCAAAUACAUGAGGAUCACCCAUGUAAGCUUUUUGUUCGUAGAUUAACACUAAUAAUAAUAAUA [Stov1new/2-B] (Eterna round: R97, puzzle: Sensor, turn-off variant 1)				15.8		16.7
UUUUUACAUGAGGAUCACCCAUGUGAGGAUAUGAGGGUUAGCUUAAAUGGGCUGACUUUCAGAAGGCACAUGAA [JR_Ex1_Sub059] (Eterna round: R97, puzzle: Exclusion 1)				280		128
CAUUACUACAAGCUUGGGAACAUGAGGAUCACCCAUGUUCGUCUUAUUGAUCUAGGUACGCUGACGUACCUAGAUCU [JL-sv1-2.24 Brourd mod] (puzzle: Sensor v3, turn-off variant 1)	14.3	21.7	13.3			
UGUUGUUCAGGAUAUGAUGUAUAAUACAUGAGGAUCACCCAUGUAGAUCCUGAAUUAACAUCAGAAGGGAAUAUUU [JL-ex5-4.59 Brourd mod] (Eterna round: R97, puzzle: Exclusion 5)				19.8		17.2
AGAUGUAGAUACCGAUCCUACAUGAGGAUCACCCAUGUAGCUAGACGUGCUCGCGUUGCUCGUCAGACUACCAGUAG [salish99_TOv1_r3_088] (puzzle: Sensor v3, turn-off variant 1)	279	286	382			
ACAUGAGGAUCACCCAUGUACUGGGUUUAGUUUCAUCGUUUGAAGGAUAUACUCCGUUAGUUGUCGUAGAAGGUCACAGUUUGG [JR_ExcNG3_Sub008] (Eterna round: R96, puzzle: Exclusion NG 3)				457	407	517
GGAAUACAUGAGGAUCACCCAUGUAAGGAUAUGCUGAAUAACACGGAAUUAACGUGCAGCAGAAGGUACAAAGG [Mat - Mod of my Eli Mod D43] (puzzle: Exclusion 1)	62.8	63.3	113			
AAACUGAGGCUUUGCUUUAGUCGUACAUGAGGAUCACCCAUGUAGGAUAUGGUAGGCUUUGCUUACCAGAAGGACAGAGUGAUC [JL EXNG3 1.20] (Eterna round: R96, puzzle: Exclusion NG 3)				80.5	404	279
AACAGUACAGGAUAUACAUGAGGAUCACCCAUGUGAGAUUUAAGUGGCGUACCACAAAGUAGAAGGGUACUGGA [JL Maslow Revisted mod 5] (Eterna round: R96, puzzle: Exclusion 3)				230	29.6	37.3
GCUCGUACGGAGGAUAUAGAUUUCGGAAACCGACUAGAAGGCCGAACAUGAGGAUCACCCAUGUGAUUUAUAUC [Gesozarequ] (puzzle: Exclusion 6)	23.2	18.9	23.4			
GUGAAGUGAGGAUAUACGAGAGAGGCUGAACCGGACGAGAAGUAGAAGGCACAUGAGGAUCACCCAUGUAAGGA [JR_Exclu4_Sub022] (puzzle: Exclusion 4)		34.4				

Sequence	apparent KD of MS2 coat protein [1] [nM]	apparent KD of MS2 coat protein [2] [nM]	apparent KD of MS2 coat protein [3] [nM]	apparent KD of MS2 coat protein (input ligand: FMN 200 uM) [nM]	apparent KD of MS2 coat protein [4] [nM]	apparent KD of MS2 coat protein (input ligand: none) [nM]
UGCUACAUGAGGAUCACCCAUGUUAUUUGGGAUUUUUUAGGACAGGAUAUGAUUGUAUUGUUUUUUCAGAAGGGUCAUUACUUU [JR_ExcNG3_Sub013] (Eterna round: R96, puzzle: Exclusion NG 3)				368	316	347
CGAUGCUCGUGCCCACAUGAGGAUCACCCAUGUCGAGUCAGCGAGGAUAUCGGUGGCACAUAGUACGAGAAGGCGCGGACCUGA [Ex NG3 #18] (Eterna round: R96, puzzle: Exclusion NG 3)				17.7	11.5	17
UAUUAGCAAGCGAGAUCUCACAUGAGGAUCACCCAUGUGCUCGUCUUAUAAGGUACUGUGACGAUAGUCACGGUACC [Mat - Sensor, turn-off var - Eli Mod - D38] (Eterna round: R97, puzzle: Sensor, turn-off variant 1)				15.3		14.6
GUCGAUGUCAAAGGAUAUCAGCACGUUUAGUGCUGAGAAGGUUGAACAUGAGGAUCACCCAUGUAGAUCAUUAACGACUUAAUU [ENG1/10-A1] (Eterna round: R96, puzzle: Exclusion NG 1)				44.5	15.7	20.7
GGACCAUAUCAGGAUAUGACUAGCCUCGGCUAGUCAGAAGGGAUGACAUGAGGAUCACCCAUGUGAUCAGGUCC [E6/1-C2] (Eterna round: R97, puzzle: Exclusion 6)				59.5		36.7
AUAAAGUGAGGAUAUAUAAGACACGGUGAUACACCGUGAAAAUAGAAGGUACAUGAGGAUCACCCAUGUUGGGC [Mod of Anonveat 19 - Jieux - Exclusion 4] (Eterna round: R97, puzzle: Exclusion 4)				50.2		53.7
AAGAAACAUGAGGAUCACCCAUGUGAGGAUAUGAAAAAGAAAAUAAAAUAAAUAAUAAUCAGAAGGCACAAAGG [Mat - Mod of Hog D6] (puzzle: Exclusion 1)	43.1	44.4	37.3			
GUGUGCAGAGGAUAUACAUAGUAAAAUAAAAUAUAAUAGGGACAUGAGGAUCACCCAUGUAGAAGGCUGAGUGU [Excluse me!! 23 - Jieux - Exclusion 2] (puzzle: Exclusion 2)	51.2	41.7	46.1			
GCCAGAGCAGGAUAUUCAAUGUAUCACAUGAGGAUCACCCAUGUCCAGCGAAAGCUGGAGGGAGAAGGGCUCUGGC [Fiskers Ex 5 - 17] (puzzle: Exclusion 5)	65.6	234	257			
GCAGCAACUCUUACUAACUAAACAUGAGGAUCACCCAUGUCUCAGGAUAUGGUCUGGAUUACAGGCCAGAAGGGAGAAAGCUGC [Eli exng3 - 038] (Eterna round: R96, puzzle: Exclusion NG 3)				15.6	11.2	16.9
CACAAGCUUUUUUGAUGCAUUUUAGUUGGUUGCCUUUUUACAUGAGGAUCACCCAUGUUUGUGUAGCUCGAUCUUUU [JR_SV3TOV2_Sub078] (puzzle: Sensor v3, turn-off variant 2)	36.5	29	41.2			
AACCUGAGGCAAAGCUUUAGGUGUACAUGAGGAUCACCCAUGUAGGAUAUGGUAGGCAAAGCUUACCAGAAGGACAUUAUGAUG [Mat - Exclusion NG 3 - Mod of JL - D51] (Eterna round: R96, puzzle: Exclusion NG 3)				104	49.5	62.9
UACAAGCUGCUCUAAUAGAACAUGAGGAUCACCCAUGUUGCUAAACAUGAAAGAAUUGGCUCCGCAUGGAUUGCUCG [Eternabot (L2) Solution 9] (Eterna round: R97, puzzle: Sensor, turn-off variant 1)				31.9		33.6
ACAAGCGUUUUGCUCGUAAAGUAGGAACGCGAGAGCGGCACAUGAGGAUCACCCAUGUAGAGGCAGUUGGUGGAGAU [JR_SV3TOV2_Sub030] (puzzle: Sensor v3, turn-off variant 2)	24.5	24.2	25.3			
CUCUUGUCAGGAUAUCAACGCCAUCCACAUGGACGGCGAAAUGAGAAGGGACAUGAGGAUCACCCAUGUUAAAA [Xeveleqube] (puzzle: Exclusion 4)	27.3	117	139			
UAUAUAUAGUAAGGAUAUGUAUUAAUUUAAUAAACAGAAGGUACUGACAUGAGGAUCACCCAUGUUUUAGUGUGGGCAUGUAGA [JMF's solution 83] (Eterna round: R96, puzzle: Exclusion NG 1)					64.3	
